{"source": "IntAct's records for PubMed 22158122", "parents": {"B1": {"name": "TGF-beta-activated kinase 1 and MAP3K7-binding protein 2 (Homo sapiens), Q9NYJ8 (parent)", "chain": "MAQGSHQIDFQVLHDLRQKFPEVPEVVVSRCMLQNNNNLDACCAVLSQESTRYLYGEGDLNFSDDSGISGLRNHMTSLNLDLQSQNIYHHGREGSRMNGSRTLTHSISDGQLQGGQSNSELFQQEPQTAPAQVPQGFNVFGMSSSSGASNSAPHLGFHLGSKGTSSLSQQTPRFNPIMVTLAPNIQTGRNTPTSLHIHGVPPPVLNSPQGNSIYIRPYITTPGGTTRQTQQHSGWVSQFNPMNPQQVYQPSQPGPWTTCPASNPLSHTSSQQPNQQGHQTSHVYMPISSPTTSQPPTIHSSGSSQSSAHSQYNIQNISTGPRKNQIEIKLEPPQRNNSSKLRSSGPRTSSTSSSVNSQTLNRNQPTVYIAASPPNTDELMSRSQPKVYISANAATGDEQVMRNQPTLFISTNSGASAASRNMSGQVSMGPAFIHHHPPKSRAIGNNSATSPRVVVTQPNTKYTFKITVSPNKPPAVSPGVVSPTFELTNLLNHPDHYVETENIQHLTDPTLAHVDRISETRKLSMGSDDAAYTQALLVHQKARMERLQRELEIQKKKLDKLKSEVNEMENNLTRRRLKRSNSISQIPSLEEMQQLRSCNRQLQIDIDCLTKEIDLFQARGPHFNPSAIHNFYDNIGFVGPVPPKPKDQRSIIKTPKTQDTEDDEGAQWNCTACTFLNHPALIRCEQCEMPRHF", "partner": "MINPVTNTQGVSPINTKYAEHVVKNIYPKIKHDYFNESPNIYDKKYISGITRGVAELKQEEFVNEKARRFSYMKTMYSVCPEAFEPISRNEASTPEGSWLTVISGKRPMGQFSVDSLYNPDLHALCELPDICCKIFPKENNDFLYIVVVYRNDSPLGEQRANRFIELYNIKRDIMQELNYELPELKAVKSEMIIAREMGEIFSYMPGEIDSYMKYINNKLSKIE"}, "B2": {"name": "TGF-beta-activated kinase 1 and MAP3K7-binding protein 3 (Homo sapiens), Q8N5C8-1 (parent)", "chain": "MAQSSPQLDIQVLHDLRQRFPEIPEGVVSQCMLQNNNNLEACCRALSQESSKYLYMEYHSPDDNRMNRNRLLHINLGIHSPSSYHPGDGAQLNGGRTLVHSSSDGHIDPQHAAGKQLICLVQEPHSAPAVVAATPNYNPFFMNEQNRSAATPPSQPPQQPSSMQTGMNPSAMQGPSPPPPPPSYMHIPRYSTNPITVTVSQNLPSGQTVPRALQILPQIPSNLYGSPGSIYIRQTSQSSSGRQTPQSTPWQSSPQGPVPHYSQRPLPVYPHQQNYQPSQYSPKQQQIPQSAYHSPPPSQCPSPFSSPQHQVQPSQLGHIFMPPSPSTTPPHPYQQGPPSYQKQGSHSVAYLPYTASSLSKGSMKKIEITVEPSQRPGTAINRSPSPISNQPSPRNQHSLYTATTPPSSSPSRGISSQPKPPFSVNPVYITYTQPTGPSCTPSPSPRVIPNPTTVFKITVGRATTENLLNLVDQEERSAAPEPIQPISVIPGSGGEKGSHKYQRSSSSGSDDYAYTQALLLHQRARMERLAKQLKLEKEELERLKSEVNGMEHDLMQRRLRRVSCTTAIPTPEEMTRLRSMNRQLQINVDCTLKEVDLLQSRGNFDPKAMNNFYDNIEPGPVVPPKPSKKDSSDPCTIERKARRISVTSKVQADIHDTQAAAADEHRTGSTQSPRTQPRDEDYEGAPWNCDSCTFLNHPALNRCEQCEMPRYT", "partner": "B1 partner"}}}
{"variants_of": "B1", "conditions": "with nlee_eco27 nleE"}
{"variant": "C670S", "effect of a mutation on the interaction": "disrupting interaction"}
{"variant": "C687S", "effect of a mutation on the interaction": "disrupting interaction"}
{"variant": "C684S", "effect of a mutation on the interaction": "disrupting interaction"}
{"variants_of": "B2", "conditions": "with nlee_eco27 nleE"}
{"variant": "C706S", "effect of a mutation on the interaction": "disrupting interaction"}
{"variant": "C703S", "effect of a mutation on the interaction": "disrupting interaction"}
{"variant": "C689S", "effect of a mutation on the interaction": "disrupting interaction"}
